For orientation: Ki means a dissociation constant, usually derived from enzyme kinetics or from competition with a known ligand.

The chains are these.
T1: human glucose-dependent insulinotropic polypeptide (GIP) receptor (human), P48546
T1 chain: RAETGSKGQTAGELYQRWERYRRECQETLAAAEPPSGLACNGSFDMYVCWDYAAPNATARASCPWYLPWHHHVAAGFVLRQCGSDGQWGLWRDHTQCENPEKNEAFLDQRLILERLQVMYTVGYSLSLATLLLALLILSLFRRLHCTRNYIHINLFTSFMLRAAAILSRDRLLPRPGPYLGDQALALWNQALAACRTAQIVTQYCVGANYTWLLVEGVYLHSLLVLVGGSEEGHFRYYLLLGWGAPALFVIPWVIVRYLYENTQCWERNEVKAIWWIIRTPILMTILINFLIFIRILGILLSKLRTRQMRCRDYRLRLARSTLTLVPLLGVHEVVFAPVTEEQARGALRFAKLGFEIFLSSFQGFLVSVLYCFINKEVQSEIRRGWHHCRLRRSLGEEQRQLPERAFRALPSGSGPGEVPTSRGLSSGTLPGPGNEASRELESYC

B1: Example 96 (peptide)
peptide: Y[Aib]EGTFISDYSIALDKIHQ[Aib]EFVNYK([AEEA-AEEA-γGlu-C20 diacid])LAGGPSSGAPPPS-NH2
modifications: N-terminus assumed
SMILES: CC[C@H](C)[C@H](NC(=O)[C@H](CO)NC(=O)[C@H](Cc1ccc(O)cc1)NC(=O)[C@H](CC(=O)O)NC(=O)[C@H](CO)NC(=O)[C@@H](NC(=O)[C@H](Cc1ccccc1)NC(=O)[C@@H](NC(=O)CNC(=O)[C@H](CCC(=O)O)NC(=O)C(C)(C)NC(=O)[C@@H](N)Cc1ccc(O)cc1)[C@@H](C)O)[C@@H](C)CC)C(=O)N[C@@H](C)C(=O)N[C@@H](CC(C)C)C(=O)N[C@@H](CC(=O)O)C(=O)N[C@@H](CCCCN)C(=O)N[C@H](C(=O)N[C@@H](Cc1c[nH]cn1)C(=O)N[C@@H](CCC(N)=O)C(=O)NC(C)(C)C(=O)N[C@@H](CCC(=O)O)C(=O)N[C@@H](Cc1ccccc1)C(=O)N[C@H](C(=O)N[C@@H](CC(N)=O)C(=O)N[C@@H](Cc1ccc(O)cc1)C(=O)N[C@@H](CCCCNC(=O)COCCOCCNC(=O)COCCOCCNC(=O)CC[C@H](NC(=O)CCCCCCCCCCCCCCCCCCC(=O)O)C(=O)O)C(=O)N[C@@H](CC(C)C)C(=O)N[C@@H](C)C(=O)NCC(=O)NCC(=O)N1CCC[C@H]1C(=O)N[C@@H](CO)C(=O)N[C@@H](CO)C(=O)NCC(=O)N[C@@H](C)C(=O)N1CCC[C@H]1C(=O)N1CCC[C@H]1C(=O)N1CCC[C@H]1C(=O)N[C@@H](CO)C(N)=O)C(C)C)[C@@H](C)CC
B2: Example 7 (peptide)
peptide: Y[Aib]EGTFISDYSI[αMeL]LD[Orn]IHQ[Aib]EFV[dE]YK([AEEA-AEEA-γGlu-C18 diacid])LEGGPSSGAPPPS-NH2
modifications: N-terminus assumed
SMILES: CC[C@H](C)[C@H](NC(=O)[C@H](CCCN)NC(=O)[C@H](CC(=O)O)NC(=O)[C@H](CC(C)C)NC(=O)[C@](C)(CC(C)C)NC(=O)[C@@H](NC(=O)[C@H](CO)NC(=O)[C@H](Cc1ccc(O)cc1)NC(=O)[C@H](CC(=O)O)NC(=O)[C@H](CO)NC(=O)[C@@H](NC(=O)[C@H](Cc1ccccc1)NC(=O)[C@@H](NC(=O)CNC(=O)[C@H](CCC(=O)O)NC(=O)C(C)(C)NC(=O)[C@@H](N)Cc1ccc(O)cc1)[C@@H](C)O)[C@@H](C)CC)[C@@H](C)CC)C(=O)N[C@@H](Cc1c[nH]cn1)C(=O)N[C@@H](CCC(N)=O)C(=O)NC(C)(C)C(=O)N[C@@H](CCC(=O)O)C(=O)N[C@@H](Cc1ccccc1)C(=O)N[C@H](C(=O)N[C@H](CCC(=O)O)C(=O)N[C@@H](Cc1ccc(O)cc1)C(=O)N[C@@H](CCCCNC(=O)COCCOCCNC(=O)COCCOCCNC(=O)CC[C@H](NC(=O)CCCCCCCCCCCCCCCCC(=O)O)C(=O)O)C(=O)N[C@@H](CC(C)C)C(=O)N[C@@H](CCC(=O)O)C(=O)NCC(=O)NCC(=O)N1CCC[C@H]1C(=O)N[C@@H](CO)C(=O)N[C@@H](CO)C(=O)NCC(=O)N[C@@H](C)C(=O)N1CCC[C@H]1C(=O)N1CCC[C@H]1C(=O)N1CCC[C@H]1C(=O)N[C@@H](CO)C(N)=O)C(C)C

Starred links: 1 amine or outer side, 2 acyl side, 3 side chain; linkers in the order of their positions; H or OH if unused. Non-standard residues stand in square brackets, D forms with d. Groups on a side chain read outwards from the residue. No end group written: not given here. *: point of attachment. C20 diacid = O=C(O)CCCCCCCCCCCCCCCCCCC(=O)*; C18 diacid = O=C(O)CCCCCCCCCCCCCCCCC(=O)*; γGlu = O=C(O)[C@H](CCC(=O)[*:2])N[*:1]; αMeL = CC(C)C[C@](C)(N)C(=O)O; Orn = NCCC[C@H](N)C(=O)O; AEEA = NCCOCCOCC(=O)O; Aib = CC(C)(N)C(=O)O

In this experiment the target is T1, human glucose-dependent insulinotropic …. Put plainly: SPA, displacement of [125I]-GIP from hGIPR membranes, 0.1% bacitracin. (In general: In a radioligand displacement assay an active substance lowers the binding of a labelled ligand.)
As for B1, the Ki stood at 232 pM.
Regarding Y[Aib]EGTFISDYSI[αMeL]LD[Orn]IHQ[Aib]DFV[dE]YK([AEEA-AEEA-γGlu-C20 diacid])LEGGPSSGAPPPS-NH2 [Example 101], the inhibition constant (Ki) came out at 139 pM. Against the preceding molecule, the Ki is about 1.7-fold lower.
The molecule B2 registered a Ki of 193 pM.

The values above are taken from patent publication US20210032299A1.
